Earlier results in PMC10301793 (Marine Drugs, 2023).
Where no end group is shown, it is not given here.

Molecular target: α6/α3β4 nAChR (Rattus norvegicus, UniProt P04757+P12392+P43143)
Conditions: cited from earlier work

[D1G,∆Q14]LvIC: LvIC analogue (GCCANPVCNGKHC-NH2; ends and bridges not checked)
IC50: 19 nM
